Data on twelve molecules can be found in patent publication US20200010554A1 (TUSK THERAPEUTICS, published 2020).

Residue numbers refer to the chain shown, from its start. Like-named read-outs stand apart in the source and are kept apart here.

The target in assay [1] is T1, recombinant mouse CD25 (mouse, UniProt P01590 22-236, biotinylated in FIG. 1A (site not stated)).
T1 construct: also called biotinylated mouse CD25
T1 sequence (looked up): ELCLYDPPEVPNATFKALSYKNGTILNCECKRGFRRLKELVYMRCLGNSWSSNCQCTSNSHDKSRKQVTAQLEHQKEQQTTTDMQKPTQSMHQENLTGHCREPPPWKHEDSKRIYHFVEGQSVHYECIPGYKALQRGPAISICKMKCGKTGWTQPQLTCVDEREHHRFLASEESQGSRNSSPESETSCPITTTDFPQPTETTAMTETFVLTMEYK
Description: BLI Octet RED384, IgG on AHQ sensors, 100 nM antigen, 1:1 model.

Assay [2] deals with T2, mouse CD25 expressed on cells (CHO cells expressing mouse CD25; mouse T cells) (mouse, UniProt P01590 22-268).
T2 construct: whole, on cells; also called CHO-mCD25; cellular expressed mCD25
T2 sequence (looked up): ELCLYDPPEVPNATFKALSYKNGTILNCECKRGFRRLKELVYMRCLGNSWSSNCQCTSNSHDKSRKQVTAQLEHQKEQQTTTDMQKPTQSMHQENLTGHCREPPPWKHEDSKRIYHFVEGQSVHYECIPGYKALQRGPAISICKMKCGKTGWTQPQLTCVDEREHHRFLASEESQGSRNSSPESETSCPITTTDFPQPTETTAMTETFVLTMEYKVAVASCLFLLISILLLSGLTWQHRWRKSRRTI
Description: flow cytometry on CHO cells expressing mouse CD25, MFI AF647. For orientation: Flow cytometry measures light scatter and fluorescence of single cells or particles in a stream.

For assay [3], the target named is T3, recombinant mouse CD25 his tagged (mouse, UniProt P01590 22-236, limits assumed).
T3 construct: also called rmCD25 his tagged; mCD25; not shown: his tag
T3 sequence (looked up): T1 sequence (looked up)
Description: SPR Biacore 2000, antibody captured by anti-mouse antibody on CM-5 chip, recombinant mouse CD25 his tagged as analyte, bivalent analyte model. (In general: SPR reads the build-up and loss of mass on a sensor chip optically.)

For assay [4], the target named is T4, human CD25 expressed on cells (Karpas 299, SU-DHL-1, SR-786, in vitro differentiated Treg cells, PBMC) (human, UniProt P01589 22-272).
T4 construct: also called CD25 expressing cells
T4 sequence: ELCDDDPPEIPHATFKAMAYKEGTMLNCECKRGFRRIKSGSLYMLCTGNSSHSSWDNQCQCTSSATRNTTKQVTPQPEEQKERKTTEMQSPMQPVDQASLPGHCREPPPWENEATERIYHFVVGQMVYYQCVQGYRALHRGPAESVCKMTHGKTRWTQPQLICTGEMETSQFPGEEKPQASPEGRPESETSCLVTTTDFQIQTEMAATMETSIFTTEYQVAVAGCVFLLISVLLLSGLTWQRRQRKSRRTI
Description: flow cytometry on Karpas 299 cells, MFI AF647.

Assay [5] addresses T4, human CD25 expressed on cells (Karpas …). Description: flow cytometry on SR-786 cells, Geo Mean Intensity.
Assay [6] shares this target. Description: flow cytometry on SU-DHL-1 cells, Geo Mean Intensity.
In assay [7] the target is T5, recombinant human CD25 his tagged (human, UniProt P01589 22-213, limits assumed).
T5 construct: also called rhCD25 his tagged; rhCD25; not shown: his tag
T5 sequence: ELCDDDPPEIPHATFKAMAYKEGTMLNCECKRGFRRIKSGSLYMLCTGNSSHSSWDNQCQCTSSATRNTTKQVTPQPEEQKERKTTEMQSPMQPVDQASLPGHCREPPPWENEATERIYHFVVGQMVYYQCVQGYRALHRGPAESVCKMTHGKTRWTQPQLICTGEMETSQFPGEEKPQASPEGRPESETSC
Description: SPR, Biacore 2000: antibody captured on an anti-human antibody CM-5 chip, rhCD25 his tagged as analyte, 1:1 Langmuir fit.

The target in assay [8] is T4, human CD25 expressed on cells (Karpas …). Description: flow cytometry on Karpas 299 cells, MFI AF647. The source holds these as a separate data set.
The target of assay [9] is T5, recombinant human CD25 his tagged. Description: SPR, Biacore 2000: antibody captured on an anti-human antibody CM-5 chip, rhCD25 his tagged as analyte, 1:1 Langmuir fit. The source holds these as a separate data set.
In assay [10] the target is T4, human CD25 expressed on cells (Karpas …). Description: flow cytometry on human in vitro differentiated Treg cells, MFI AF647.
The target in assay [11] is T5, recombinant human CD25 his tagged. Description: biolayer interferometry, Octet Red 96: antibody on AHC biosensor, rhCD25 his tagged 50 nM to 0.54 nM, global 1:1 fit [F]. A general note: In BLI a coated tip is dipped into the sample, and binding shifts an interference pattern.
For assay [12], the target named is T4, human CD25 expressed on cells (Karpas …). Description: flow cytometry titration on Karpas 299 cells, AF647 secondary antibody.
For assay [13] the target is unchanged. Described as above. The source holds these as a separate data set.
For assay [14] the target is unchanged. The assay is described as above. The source holds these as a separate data set.
For assay [15] the target is unchanged. The assay is described as above. The source holds these as a separate data set.
Assay [16] has the same target. Description: flow cytometry titration on Karpas 299 cells, AF647 secondary antibody [Figure 68 continued].
Assay [17] has the same target. Described as above. This is another data set of the same source.

B1: PC61(mIgG2a), recombinant anti-mouse CD25 antibody from clone PC-61.5.3 with murine IgG2a and kappa constant regions (antibody, V domains shown)
VH: EVQLQQSGAELVRPGTSVKLSCKVSGDTITAYYIHFVKQRPGQGLEWIGRIDPEDDSTEYAEKFKNKATITANTSSNTAHLKYSRLTSEDTATYFCTTDNMGATEFVYWGQGTLVTVSS
VL: QVVLTQPKSVSASLESTVKLSCKLNSGNIGSYYMHWYQQREGRSPTNLIYRDDKRPDGAPDRFSGSIDISSNSAFLTINNVQTEDEAMYFCHSYDGRMYIFGGGTKLTV
notes: also called PC61m2a; aPC61 mIgG2a
For the molecule B1, the Kd was 4.6 nM in [1] and 3.6 nM in assay [3]. For the same molecule, the EC50 (read off the curve) (commonly the midpoint of the concentration-response curve) in [2] was ~0.2 µg/mL.

B2: chimeric 7G7B6 (antibody, V domains shown)
VH: EVQLVESGGDLVQPRGSLKLSCAASGFTFSSYGMSWVRQTPDKRLELVATINGYGDTTYYPDSVKGRFTISRDNAKNTLYLQMSSLKSEDTAMYFCARDRDYGNSYYYALDYWGQGTSVTVSS
VL: QIVLSQSPAILSASPGERVTMTCRASSSVSFMHWLQQKPGSSPKPWIYATSNLASGVSARFSGSGSGTSYSLTITRVEAEDAATYYCQQWSSNPPAFGGGTKLEIK
notes: also called 7G7B6 chimeric antibody; 7g7B6ch
On to B2, for which the “EC50 (read off the curve)” value in assay [4] is ~1 µg/mL; in [5], ~0.9 µg/mL; in [6], ~0.8 µg/mL. For the same molecule, the Kd in [7] turned out to be 6.7 nM.

B3: MA251, mouse anti-human CD25 antibody (antibody, V domains shown)
VH: QVQLKESGPGLVAPSQSLSITCTVSGFSLTSYGIQWVRQPPGKGLEWLGVIWAGGSTNYNSALMSRLSISKDNSKSQVFLKMNSLQTDDTAMYYCARAYGYDGSWLAYWGQGTLVTVSS
VL: B2 VL with R18K, F31Y, L35Y, Y48F, S58P, T75N, A83D, A96T
notes: Mouse isotype (compared with a mouse IgG1 isotype control)
In the case of B3, in assay [8], the “EC50 (read off the curve)” value was ~0.1 µg/mL.

B4: MA251ch (antibody, V domains shown)
VH: B3 VH
VL: B2 VL with R18K, F31Y, L35Y, Y48F, S58P, T75N, A83D, A96T
B4: the Kd in assay [9] came out at 6.6 nM.

B5: 7G7B6, mouse IgG2a anti-human CD25 antibody (antibody, V domains shown)
VH: B2 VH
VL: B2 VL
notes: also called 7G76B; mouse anti-human CD25 clone 7G7B6
Turning to B5, in [10], the concentration giving a half-maximal response (EC50 (read off the curve)) is ~1 µg/mL.

B6: Antibody 5 (antibody, V domains shown)
VH: EVQLVESGGGLIQPGGSLRLSCAASGFTLDSYGVSWVRQAPGKGLEWVGVTSSGGSAYYADSVKGRFTISRDNSKNTLYLQMNSLRAEDTAVYYCARDRYVYTGGYLYHYGMDLWGQGTLVTVSS
VL: DIQMTQSPSSLSASVGDRVTITCRASQSISDYLAWYQQKPGKVPKLLIYAASTLPFGVPSRFSGSGSGTDFTLTISSLQPEDVATYYCQGTYDSSDWYWAFGGGTKVEI
notes: compared with a human IgG1 isotype control
On to B6, for which, in assay [11], the Kd is 0.8 nM.

B7: Antibody 6 (antibody, V domains shown)
VH: EVQLLESGGGLVQPGGSLRLSCAASGFTFSSYGMSWVRQAPGKGLELVSTINGYGDTTYYPDSVKGRFTISRDNSKNTLYLQMNSLRAEDTAVYYCARDRDYGNSYYYALDYWGQGTLVTVSS
VL: EIVLTQSPGTLSLSPGERATLSCRASSSVSFMHWLQQKPGQAPRPLIYATSNLASGIPDRFSGSGSGTDYTLTISRLEPEDFAVYYCQQWSSNPPAFGQGTKLEIK
notes: as for B6
For B7, the binding result in assay [12] is recorded as “binds”.

B8: Antibody 7 (antibody, V domains shown)
VH: B7 VH
VL: B7 VL with E1Q, A42S
notes: as for B6
B8: the binding result in assay [13] is listed as “binds”.

B9: Antibody 9 (antibody, V domains shown)
VH: B7 VH with S75A, Y95F
VL: B7 VL with E1Q, A42S
notes: as for B6
As to B9, the binding result in [14] is listed as “binds”.

B10: Antibody 8 (antibody, V domains shown)
VH: B7 VH with S75A, Y95F
VL: B7 VL
notes: as for B6
With B10, in assay [15], the binding result was “binds”.

B11: Antibody 20 (antibody, V domains shown)
VH: QVQLVESGGGVVQPGGSLRLSCAVSGFSLTSYGIQWVRQAPGKGLEWVSVIWAGGSTNYNSALMSRFTISKDNSKSTLYLQMNSLRAEDTAVYYCARAYGYDGSWLAYWGQGTLVTVSS
VL: DIQMTQSPSSLSASVGDRVTITCRASSSVSYMHWYQQKPGKAPKPLIFATSNLASGVPSRFSGSGSGTDYTLTISSLQPEDFATYYCQQWSSNPPTFGGGTKLEIK
notes: also called Ab20
In the case of B11, the “EC50 (read off the curve)” value in assay [16] was ~0.2 µg/mL.

B12: Antibody 21 (antibody, V domains shown)
VH: B11 VH
VL: B11 VL with D1Q, M4L, A42S
notes: also called Ab21
Regarding B12, in [17], the “EC50 (read off the curve)” value was ~0.2 µg/mL.
